Results taken from article PMC10397247.

Assays:
[1] = biological target: T1, 4H2389-AA; test: two-hybrid library CCmax; settings: mean of both orientations;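 also: natural log of median RNA to DNA barcode read ratio; higher means stronger binding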
T1 chain: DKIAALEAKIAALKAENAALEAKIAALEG

[2] = biological target: T2, 4H94-AA; test: two-hybrid library CCmax; settings: mean of both orientations;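 also: natural log of median RNA to DNA barcode read ratio; higher means stronger binding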
T2 chain: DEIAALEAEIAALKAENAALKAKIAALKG

[3] = biological target: T3, 4H2473-AA; test: two-hybrid library CCmax; settings: mean of both orientations;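 also: natural log of median RNA to DNA barcode read ratio; higher means stronger binding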
T3 chain: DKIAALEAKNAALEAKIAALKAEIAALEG

[4] = biological target: T4, 4H2162-AA; test: two-hybrid library CCmax; settings: mean of both orientations;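 also: natural log of median RNA to DNA barcode read ratio; higher means stronger binding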
T4 chain: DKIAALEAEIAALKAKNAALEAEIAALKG

[5] = biological target: T5, 4H745-AA; test: two-hybrid library CCmax; settings: mean of both orientations;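 also: natural log of median RNA to DNA barcode read ratio; higher means stronger binding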
T5 chain: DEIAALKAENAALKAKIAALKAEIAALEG

[6] = biological target: T6, 4H3009-AA; test: two-hybrid library CCmax; settings: mean of both orientations;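 also: natural log of median RNA to DNA barcode read ratio; higher means stronger binding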
T6 chain: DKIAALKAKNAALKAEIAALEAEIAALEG

[7] = biological target: T7, 4H2274-AA; test: two-hybrid library CCmax; settings: mean of both orientations
T7 chain: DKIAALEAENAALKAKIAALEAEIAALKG

[8] = biological target: T8, 4H485-AA; test: two-hybrid library CCmax; settings: mean of both orientations
T8 chain: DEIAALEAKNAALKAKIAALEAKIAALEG

[9] = biological target: T9, 4H310-AA; test: two-hybrid library CCmax; settings: mean of both orientations
T9 chain: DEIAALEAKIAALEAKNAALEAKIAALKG

[10] = biological target: T10, 4H3410-AA; test: two-hybrid library CCmax; settings: mean of both orientations
T10 chain: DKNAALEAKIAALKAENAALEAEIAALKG

[11] = biological target: T11, 4H458-AA; test: two-hybrid library CCmax; settings: mean of both orientations
T11 chain: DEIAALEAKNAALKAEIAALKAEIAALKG

[12] = biological target: T12, 4H570-AA; test: two-hybrid library CCmax; settings: mean of both orientations
T12 chain: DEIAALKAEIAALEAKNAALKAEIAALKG

[13] = biological target: T13, 4H171-AA; test: two-hybrid library CCmax; settings: mean of both orientations
T13 chain: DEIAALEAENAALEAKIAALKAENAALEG

[14] = biological target: T14, 4H3381-AA; test: two-hybrid library CCmax; settings: mean of both orientations
T14 chain: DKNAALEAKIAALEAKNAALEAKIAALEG

[15] = biological target: T15, 4H909-AA; test: two-hybrid library CCmax; settings: mean of both orientations
T15 chain: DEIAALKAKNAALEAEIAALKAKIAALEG

[16] = biological target: T16, 4H891-AA; test: two-hybrid library CCmax; settings: mean of both orientations
T16 chain: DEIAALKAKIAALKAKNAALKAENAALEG

[17] = biological target: T17, 4H3865-AA; test: two-hybrid library CCmax; settings: mean of both orientations
T17 chain: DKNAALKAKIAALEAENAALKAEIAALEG

[18] = biological target: T18, 4H1842-AA; test: two-hybrid library CCmax; settings: mean of both orientations
T18 chain: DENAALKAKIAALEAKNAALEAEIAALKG

[19] = biological target: T19, 4H2698-AA; test: two-hybrid library CCmax; settings: mean of both orientations
T19 chain: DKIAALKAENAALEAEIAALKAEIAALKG

[20] = biological target: T20, 4H930-AA; test: two-hybrid library CCmax; settings: mean of both orientations
T20 chain: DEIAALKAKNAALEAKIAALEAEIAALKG

[21] = biological target: T21, 4H2109-AA; test: two-hybrid library CCmax; settings: mean of both orientations
T21 chain: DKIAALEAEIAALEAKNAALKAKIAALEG

[22] = biological target: T22, 4H1597-AA; test: two-hybrid library CCmax; settings: mean of both orientations
T22 chain: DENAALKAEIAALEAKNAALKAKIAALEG

[23] = biological target: T23, 4H1626-AA; test: two-hybrid library CCmax; settings: mean of both orientations
T23 chain: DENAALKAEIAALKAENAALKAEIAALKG

[24] = biological target: T24, 4H174-AA; test: two-hybrid library CCmax; settings: mean of both orientations
T24 chain: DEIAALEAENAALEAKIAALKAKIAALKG

[25] = biological target: T25, 4H3753-AA; test: two-hybrid library CCmax; settings: mean of both orientations
T25 chain: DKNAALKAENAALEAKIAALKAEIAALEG

[26] = biological target: T26, 4H536-AA; test: two-hybrid library CCmax; settings: mean of both orientations
T26 chain: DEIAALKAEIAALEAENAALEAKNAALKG

[27] = biological target: T27, 4H2865-AA; test: two-hybrid library CCmax
T27 chain: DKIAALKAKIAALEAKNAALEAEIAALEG

[28] = biological target: T28, 4H629-AA; test: two-hybrid library CCmax; settings: mean of both orientations
T28 chain: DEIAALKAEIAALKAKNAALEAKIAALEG

[29] = biological target: T29, 4H2330-AA; test: two-hybrid library CCmax; settings: mean of both orientations
T29 chain: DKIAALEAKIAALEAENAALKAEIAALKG

[30] = biological target: T30, 4H797-AA; test: two-hybrid library CCmax; settings: mean of both orientations
T30 chain: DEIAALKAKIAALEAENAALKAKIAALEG

[31] = biological target: T31, 4H2649-AA; test: two-hybrid library CCmax; settings: mean of both orientations
T31 chain: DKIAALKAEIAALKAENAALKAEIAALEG

[32] = biological target: T32, 4H3590-AA; test: two-hybrid library CCmax; settings: mean of both orientations
T32 chain: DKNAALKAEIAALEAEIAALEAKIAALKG

[33] = biological target: T33, 4H1877-AA; test: two-hybrid library CCmax; settings: mean of both orientations
T33 chain: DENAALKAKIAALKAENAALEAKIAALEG

[34] = biological target: T34, 4H2438-AA; test: two-hybrid library CCmax; settings: mean of both orientations
T34 chain: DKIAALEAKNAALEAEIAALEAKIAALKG

[35] = biological target: T35, 4H2725-AA; test: two-hybrid library CCmax; settings: mean of both orientations
T35 chain: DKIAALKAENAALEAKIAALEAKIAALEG

[36] = biological target: T36, 4H3395-AA; test: two-hybrid library CCmax; settings: mean of both orientations
T36 chain: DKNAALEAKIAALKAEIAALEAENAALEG

[37] = biological target: T37, 4H3120-AA; test: two-hybrid library CCmax; settings: mean of both orientations
T37 chain: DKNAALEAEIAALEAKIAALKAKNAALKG

[38] = biological target: T38, 4H3130-AA; test: two-hybrid library CCmax
T38 chain: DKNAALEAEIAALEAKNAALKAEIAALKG

[39] = biological target: T39, 4H3165-AA; test: two-hybrid library CCmax; settings: mean of both orientations
T39 chain: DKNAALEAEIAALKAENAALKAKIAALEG

[40] = biological target: T40, 4H2253-AA; test: two-hybrid library CCmax; settings: mean of both orientations
T40 chain: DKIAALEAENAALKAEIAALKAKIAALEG

[41] = biological target: T41, 4H3016-AA; test: two-hybrid library CCmax; settings: mean of both orientations
T41 chain: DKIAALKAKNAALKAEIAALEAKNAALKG

[42] = biological target: T42, 4H1579-AA; test: two-hybrid library CCmax
T42 chain: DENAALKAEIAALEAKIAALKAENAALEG

[43] = biological target: T43, 4H850-AA; test: two-hybrid library CCmax; settings: mean of both orientations
T43 chain: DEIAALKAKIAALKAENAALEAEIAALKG

[44] = biological target: T44, 4H3697-AA; test: two-hybrid library CCmax; settings: mean of both orientations
T44 chain: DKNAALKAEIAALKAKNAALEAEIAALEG

[45] = biological target: T45, 4H1864-AA; test: two-hybrid library CCmax; settings: mean of both orientations
T45 chain: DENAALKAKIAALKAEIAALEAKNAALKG

[46] = biological target: T46, 4H710-AA; test: two-hybrid library CCmax; settings: mean of both orientations
T46 chain: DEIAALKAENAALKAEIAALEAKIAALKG

[47] = biological target: T47, 4H2253-bH; test: two-hybrid library CCNG1
T47 chain: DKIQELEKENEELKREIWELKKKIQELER

[48] = biological target: T48, 4H56-bH; test: two-hybrid library CCNG1
T48 chain: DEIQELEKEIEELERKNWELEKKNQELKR

[49] = biological target: T49, 4H730-bH; test: two-hybrid library CCNG1
T49 chain: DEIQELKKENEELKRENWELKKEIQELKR

[50] = biological target: T50, 4H2931-bH; test: two-hybrid library CCNG1
T50 chain: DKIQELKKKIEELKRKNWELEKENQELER

[51] = biological target: T51, O5; test: two-hybrid library CCNG1
T51 chain: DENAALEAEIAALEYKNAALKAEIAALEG

[52] = biological target: T52, 4H796-bH; test: two-hybrid library CCNG1
T52 chain: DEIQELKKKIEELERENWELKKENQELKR

[53] = biological target: T53, 4H2859-bH; test: two-hybrid library CCNG1
T53 chain: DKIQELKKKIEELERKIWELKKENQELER

[54] = biological target: T54, 4H932-bH; test: two-hybrid library CCNG1
T54 chain: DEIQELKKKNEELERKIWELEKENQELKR

[55] = biological target: T55, 4H3041-bH; test: two-hybrid library CCNG1
T55 chain: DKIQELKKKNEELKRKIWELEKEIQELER

[56] = biological target: T56, 4H319-bH; test: two-hybrid library CCNG1
T56 chain: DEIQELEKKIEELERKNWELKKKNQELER

[57] = biological target: T57, 4H949-bH; test: two-hybrid library CCNG1
T57 chain: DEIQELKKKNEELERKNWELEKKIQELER

[58] = biological target: T58, 4H2585-bH; test: two-hybrid library CCNG1
T58 chain: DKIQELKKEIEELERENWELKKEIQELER

[59] = biological target: T59, 4H264-bH; test: two-hybrid library CCNG1
T59 chain: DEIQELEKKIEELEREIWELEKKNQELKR

[60] = biological target: T60, 4H3297-bH; test: two-hybrid library CCNG1
T60 chain: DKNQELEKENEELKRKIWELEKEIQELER

[61] = biological target: T61, 4H2518-bH; test: two-hybrid library CCNG1
T61 chain: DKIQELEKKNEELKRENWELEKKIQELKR

[62] = biological target: T62, 4H235-bH; test: two-hybrid library CCNG1
T62 chain: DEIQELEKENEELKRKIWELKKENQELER

[63] = biological target: T63, 4H2233-bH; test: two-hybrid library CCNG1
T63 chain: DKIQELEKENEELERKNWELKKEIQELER

[64] = biological target: T64, 4H3381-bH; test: two-hybrid library CCNG1
T64 chain: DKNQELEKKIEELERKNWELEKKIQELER

[65] = biological target: T65, 4H2444-bH; test: two-hybrid library CCNG1
T65 chain: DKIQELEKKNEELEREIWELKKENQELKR

[66] = biological target: T66, 4H2760-bH; test: two-hybrid library CCNG1
T66 chain: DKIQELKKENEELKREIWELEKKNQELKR

[67] = biological target: T67, 4H3364-bH; test: two-hybrid library CCNG1
T67 chain: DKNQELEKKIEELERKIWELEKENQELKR

[68] = biological target: T68, 4H349-bH; test: two-hybrid library CCNG1
T68 chain: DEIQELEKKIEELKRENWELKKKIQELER

Which results are given for DENAALKAEIAALEAKIAALKAENAALEG [4H1579-AA]?
interaction score [1]: -1.56; interaction score [2]: -1.21; interaction score [3]: -1.09; interaction score [4]: -1.63; interaction score [5]: 1.21; interaction score [6]: -2.01; interaction score [7]: -1.24; interaction score [8]: -0.986; interaction score [9]: -1.28; interaction score [10]: -1.51; interaction score [11]: -1.8; interaction score [12]: -0.453; interaction score [13]: -1.67; interaction score [14]: -1.48; interaction score [15]: -1.94; interaction score [16]: -1; interaction score [17]: -1.22; interaction score [18]: -2.03; interaction score [19]: -1.29; interaction score [20]: -1.7; interaction score [21]: 0.8; interaction score [22]: -0.651; interaction score [23]: -1.19; interaction score [24]: -0.805; interaction score [25]: 1.01; interaction score [26]: 0.42; interaction score [27]: -1.53; interaction score [28]: -1.42; interaction score [29]: -1.81; interaction score [30]: -1.46; interaction score [31]: -1.11; interaction score [32]: 1.2; interaction score [33]: -0.858; interaction score [34]: -1.18; interaction score [35]: -1.31; interaction score [36]: 0.656; interaction score [37]: 0.595; interaction score [38]: -1.12; interaction score [39]: -1.86; interaction score [40]: -1.23; interaction score [41]: 0.0969; interaction score [42]: 0.482; interaction score [43]: -1.18; interaction score [44]: -1.92; interaction score [45]: 2.38; interaction score [46]: -1.33

What does the source list for DKIQELEKENEELERKNWELKKEIQELER [4H2233-bH]?
interaction score [47]: -0.0513; interaction score [48]: -1.28; interaction score [49]: -0.961; interaction score [50]: -0.862; interaction score [51]: -1.37; interaction score [52]: -0.815; interaction score [53]: -0.442; interaction score [54]: -1.01; interaction score [55]: -0.641; interaction score [56]: -0.931; interaction score [57]: -0.96; interaction score [58]: -0.529; interaction score [59]: -0.0896; interaction score [60]: -0.069; interaction score [61]: 1.4; interaction score [62]: -0.93; interaction score [63]: 0.18; interaction score [64]: -0.723; interaction score [65]: -0.446; interaction score [66]: -0.804; interaction score [67]: -0.899; interaction score [68]: 0.0715
